Measured values published in patent publication US20160032398A1, “METHODS FOR TREATING CANCER” (COMBIMMUNE, INC., priority 2013, published 2016).

What was measured:
LMO2 = test: RT-qPCR of tumors for LMO2 (Example 10); type: in vivo, C57BL6 mice; settings: after 17 days; chemerin tumors vs control; FIG. 12
Description: (§1) In order to determine the effect of chemerin on the TGS components in a mouse model, B16 melanoma tumors were implanted subcutaneously in C57BL6 mice. One cohort of mice received control tumors that received no treatment. The other cohort received tumors that were engineered to secrete the chemoattractant chemerin locally, thereby mimicking intratumoral injections of the chemoattractant.
(§2) After a period of 17 days, tumors were analyzed by RT-qPCR for LMO2 and CD137 (TNFRSF9), the key components of the TGS. […] Accordingly, a calculated TGS from the tumors would result in improved/lowered TGS score for the chemerin-treated group, whereas the control group that was not treated, and thus had fewer infiltrating NK and T cells, would have a worse/higher TGS score. GAPDH was used as the housekeeping/reference gene (not shown).

CD137 (TNFRSF9) [1] = test: CD137 expression on tumor-infiltrating leukocytes by FACS (Example 11); type: in vivo, mice; settings: chemerin-secreting B16 tumors; vs control tumors treated with cetuximab; FIG. 14
Description: (§3) In a separate experiment, three cohorts of mice were inoculated with B16 melanoma tumors. […] Each group comprised three mice. Tumors were allowed to grow until Day 9. […] Forty-eight hours after the single injection (Day 11), the tumors from all three groups were analyzed for infiltrating NK and T cells, as well as CD137 (TNFRSF9) expression.

B16 melanoma tumors [2] = test: Mouse model of melanoma treated with chemerin: tumor-infiltrating leukocytes by FACS (Example 5); type: in vivo, mice (C57BL/6)
Description: (§4) A mouse model of melanoma was used to study the effect of an immunomodulator, chemerin (RARRES2) (Pachynski et al. J. Exp. Med. 209(8):1427-1435, 2012). Both control and chemerin-over expressing tumors were transplanted into mice. Intratumoral injections of chemerin were also evaluated. For all animal experiments, C57BL/6 or B6.129S7-Rag1tm1Mom/J (RAG1 KO) mice were purchased from the Jackson Laboratory. Murine B16F0 melanoma, L1.2 B lymphoma, and human 293 HEK lines were obtained from the American Type Culture Collection. Cell lines were grown in complete media consisting of RPMI 1640 supplemented with 10% FBS, sodium pyruvate, penicillin/streptomycin, and beta-mercaptoethanol.
(§5) To evaluate the effect of constitutively secreted chemerin on tumor growth, control or chemerin-expressing B16 melanoma tumor cells (0.5×10^6 or 1×10^6) were inoculated subcutaneously into mice. Tumor growth was measured every 2-4 d by calipers, and size was expressed as the product of perpendicular length by width in square millimeters. Mice were euthanized when tumor size reached about 400 mm^2 or when tumor sites ulcerated or at day 17 to evaluate for tumor-infiltrating leukocytes (TILs) by FACS.
(§6) To evaluate the effect of exogenous chemerin on tumor growth, tumor lines were inoculated as indicated. Recombinant, active, carrier-free murine chemerin (R&D Systems) was reconstituted in sterile PBS. […]

B16 melanoma tumors [3] = test: Control, EGFR-expressing and chemerin-secreting B16 tumors: tumor size (Example 11); type: in vivo, mice; settings: chemerin-secreting B16 tumors; Day 11; vs control tumors treated with cetuximab; FIG. 16
Description: as §3
The same tumors from the three groups were analyzed for tumor size (mm^2), a surrogate for clinical outcomes and survival, at pretreatment ([…]) and post-treatment (Day 11).

B16 melanoma tumors [4] = test: Chemerin-secreting B16 melanoma tumors: tumor size (Example 10); type: in vivo, C57BL6 mice; settings: chemerin (RARRES2) secreting tumors vs control tumors; p<0.05; FIG. 11
Source text: as §1
Clinically, the changes in the number of tumor-infiltrating leukocytes also correlated with tumor growth as well.

CD137 (TNFRSF9) [5] = test: RT-qPCR of tumors for CD137 (Example 10); type: in vivo, C57BL6 mice; settings: after 17 days; chemerin tumors (n=5) vs control group (n=4); GAPDH reference; FIG. 12
Description: as §1, §2

B16 melanoma tumors [6] = test: Chemerin-secreting B16 melanoma tumors: tumor-infiltrating leukocytes (Example 10); type: in vivo, C57BL6 mice; settings: tumors engineered to secrete chemerin vs control tumors; FIG. 9
Source text: as §1

B16 melanoma tumors [7] = test: Control, EGFR-expressing and chemerin-secreting B16 tumors: tumor-infiltrating leukocytes by FACS (Example 11); type: in vivo, mice; settings: chemerin-secreting B16 tumors; Day 11; FIG. 13B
Description: as §3

CD137 = test: RT-qPCR of tumor biopsies for CD137 (Example 11); type: in vivo, mice
Description: as §3
Tumor biopsies from the three treatment groups were also analyzed by RT-qPCR to measure LMO2 and CD137 expression.
The TGS takes into account the relative expression levels of both CD137 and LMO2. Therefore, the ratio of relative expression of CD137 to LMO2 was determined.

B16 melanoma tumors [8] = test: Mouse model of melanoma treated with chemerin: tumor growth, with NK cell depletion (Example 5); type: in vivo, mice (C57BL/6); settings: FIG. 10
Description: as §4, §5, §6

B1: chemerin: chemoattractant polypeptide that attracts cells including NK cells, T cells, macrophages and dendritic cell subsets; given recombinant or secreted by engineered tumors (protein, UniProt Q99969 21-157, looked up)
Retinoic acid receptor …: ELTEAQRRGLQVALEEFHKHPPVQWAFQETSVESAVDTPFPAGIFVRLEFKLQQTSCRKRDWKKPECKVRPNGRKRKCLACIKLGSEDKVLGRLVHCPIETQVLREAEEHQETQCLRVQRAGEDPHSFYFPGQFAFS
LMO2
  LMO2 expression by RT-qPCR: not significantly changed
CD137 (TNFRSF9) [1]
  CD137 expression on total tumor-infiltrating leukocytes (FACS): increase in CD137 expression
B16 melanoma tumors [2]; FIG. 8
  NK and T cells in murine tumors: increase in NK and T cells
B16 melanoma tumors [2]; FIG. 9
  infiltrating leukocyte subsets in murine tumors (activated NK and T cells): increased the representation of activated NK and T cells
B16 melanoma tumors [3]
  tumor size: significantly smaller than control tumors
B16 melanoma tumors [4]
  tumor size: significantly smaller than control tumors
CD137 (TNFRSF9) [5]
  CD137 (TNFRSF9) expression by RT-qPCR: significantly increased
B16 melanoma tumors [6]
  tumor-infiltrating leukocytes (NK and T cells): increase in tumor-infiltrating leukocytes
B16 melanoma tumors [7]
  CD8+ T cells and NK cells of CD45+ TIL: small increases in both CD8+ T cells and NK cells
CD137; chemerin treated tumors vs non-EGFR and cetuximab treated tumors, FIG. 19
  CD137:LMO2 ratio of relative expression: greater
CD137; tumors treated with chemerin, 48 hours time point, FIG. 17B
  relative CD137 expression (RT-qPCR): significantly higher
B16 melanoma tumors [8]; NK cells depleted with anti-Asialo GM1
  clinical efficacy on tumor growth after depletion of NK cells: abrogated the clinical efficacy
B16 melanoma tumors [8]; mice
  tumor growth: inhibit tumor growth
